# B1: Hammerhead Ribozyme (parent)
# chain: ACCGGAUGUGCUUUCCGGUCUGAUGAGUCCGUGAGGACGAAACAG
# Variants of: B1
# Test: self-cleavage, relative activity (ratio to wild type); higher = more cleavage; co-transcriptional
row,Variant,self-cleavage
1,ACCGGAUGUGCAUUCCGGUCUGAUGAGUCCGUGAGGACGAAACUG [U12A A44U],0.61
2,ACCGGAUGUGCAUUACGGUCUGAUGAGUCCGUGAGGACGAAACAG [U12A C15A],0.979
3,ACCGGAUGUGCAUUGCGGUCUGAUGAGUCCGUGAGGACGAAACAG [U12A C15G],0.85
4,ACCGGAUGUGCAUUUCGGUCUGAUGAGUCCGUGAGGACGAAACAG [U12A C15U],0.668
5,ACCGGAUGUGCAUUCAGGUCUGAUGAGUCCGUGAGGACGAAACAG [U12A C16A],1.03
6,ACCGGAUGUGCAUUCGGGUCUGAUGAGUCCGUGAGGACGAAACAG [U12A C16G],0.764
7,ACCGGAUGUGCAUUCUGGUCUGAUGAGUCCGUGAGGACGAAACAG [U12A C16U],1.1
8,ACCGGAUGUGCAUUCCGGUAUGAUGAGUCCGUGAGGACGAAACAG [U12A C20A],0.313
9,ACCGGAUGUGCAUUCCGGUGUGAUGAGUCCGUGAGGACGAAACAG [U12A C20G],0.312
10,ACCGGAUGUGCAUUCCGGUUUGAUGAGUCCGUGAGGACGAAACAG [U12A C20U],0.431
11,ACCGGAUGUGCAUUCCGGUCUGAUGAGUACGUGAGGACGAAACAG [U12A C29A],0.634
12,ACCGGAUGUGCAUUCCGGUCUGAUGAGUGCGUGAGGACGAAACAG [U12A C29G],0.721
13,ACCGGAUGUGCAUUCCGGUCUGAUGAGUUCGUGAGGACGAAACAG [U12A C29U],0.881
14,ACCGGAUGUGCAUUCCGGUCUGAUGAGUCAGUGAGGACGAAACAG [U12A C30A],1.08
15,ACCGGAUGUGCAUUCCGGUCUGAUGAGUCGGUGAGGACGAAACAG [U12A C30G],0.859
16,ACCGGAUGUGCAUUCCGGUCUGAUGAGUCUGUGAGGACGAAACAG [U12A C30U],1.07
17,ACCGGAUGUGCAUUCCGGUCUGAUGAGUCCGUGAGGAAGAAACAG [U12A C38A],0.807
18,ACCGGAUGUGCAUUCCGGUCUGAUGAGUCCGUGAGGAGGAAACAG [U12A C38G],0.719
19,ACCGGAUGUGCAUUCCGGUCUGAUGAGUCCGUGAGGAUGAAACAG [U12A C38U],0.87

row,Variant,self-cleavage
1,ACCGGAUGUGCAUUCCGGUCUGAUGAGUCCGUGAGGACGAAAAAG [U12A C43A],0.33
2,ACCGGAUGUGCAUUCCGGUCUGAUGAGUCCGUGAGGACGAAAGAG [U12A C43G],0.301
3,ACCGGAUGUGCAUUCCGGUCUGAUGAGUCCGUGAGGACGAAAUAG [U12A C43U],0.392
4,ACCGGAUGUGCAUUCCAGUCUGAUGAGUCCGUGAGGACGAAACAG [U12A G17A],0.77
5,ACCGGAUGUGCAUUCCCGUCUGAUGAGUCCGUGAGGACGAAACAG [U12A G17C],0.423
6,ACCGGAUGUGCAUUCCUGUCUGAUGAGUCCGUGAGGACGAAACAG [U12A G17U],0.827
7,ACCGGAUGUGCAUUCCGAUCUGAUGAGUCCGUGAGGACGAAACAG [U12A G18A],0.726
8,ACCGGAUGUGCAUUCCGCUCUGAUGAGUCCGUGAGGACGAAACAG [U12A G18C],0.565
9,ACCGGAUGUGCAUUCCGUUCUGAUGAGUCCGUGAGGACGAAACAG [U12A G18U],0.888
10,ACCGGAUGUGCAUUCCGGUCUAAUGAGUCCGUGAGGACGAAACAG [U12A G22A],0.261
11,ACCGGAUGUGCAUUCCGGUCUCAUGAGUCCGUGAGGACGAAACAG [U12A G22C],0.236
12,ACCGGAUGUGCAUUCCGGUCUUAUGAGUCCGUGAGGACGAAACAG [U12A G22U],0.328
13,ACCGGAUGUGCAUUCCGGUCUGAUAAGUCCGUGAGGACGAAACAG [U12A G25A],0.303
14,ACCGGAUGUGCAUUCCGGUCUGAUCAGUCCGUGAGGACGAAACAG [U12A G25C],0.224
15,ACCGGAUGUGCAUUCCGGUCUGAUUAGUCCGUGAGGACGAAACAG [U12A G25U],0.331
16,ACCGGAUGUGCAUUCCGGUCUGAUGAAUCCGUGAGGACGAAACAG [U12A G27A],0.77
17,ACCGGAUGUGCAUUCCGGUCUGAUGACUCCGUGAGGACGAAACAG [U12A G27C],0.663
18,ACCGGAUGUGCAUUCCGGUCUGAUGAUUCCGUGAGGACGAAACAG [U12A G27U],0.412
19,ACCGGAUGUGCAUUCCGGUCUGAUGAGUCCAUGAGGACGAAACAG [U12A G31A],0.978

row,Variant,self-cleavage
1,ACCGGAUGUGCAUUCCGGUCUGAUGAGUCCCUGAGGACGAAACAG [U12A G31C],0.801
2,ACCGGAUGUGCAUUCCGGUCUGAUGAGUCCUUGAGGACGAAACAG [U12A G31U],1.12
3,ACCGGAUGUGCAUUCCGGUCUGAUGAGUCCGUAAGGACGAAACAG [U12A G33A],1.08
4,ACCGGAUGUGCAUUCCGGUCUGAUGAGUCCGUCAGGACGAAACAG [U12A G33C],1.37
5,ACCGGAUGUGCAUUCCGGUCUGAUGAGUCCGUUAGGACGAAACAG [U12A G33U],1.03
6,ACCGGAUGUGCAUUCCGGUCUGAUGAGUCCGUGAAGACGAAACAG [U12A G35A],0.724
7,ACCGGAUGUGCAUUCCGGUCUGAUGAGUCCGUGACGACGAAACAG [U12A G35C],0.653
8,ACCGGAUGUGCAUUCCGGUCUGAUGAGUCCGUGAUGACGAAACAG [U12A G35U],0.629
9,ACCGGAUGUGCAUUCCGGUCUGAUGAGUCCGUGAGAACGAAACAG [U12A G36A],0.571
10,ACCGGAUGUGCAUUCCGGUCUGAUGAGUCCGUGAGCACGAAACAG [U12A G36C],0.758
11,ACCGGAUGUGCAUUCCGGUCUGAUGAGUCCGUGAGUACGAAACAG [U12A G36U],0.596
12,ACCGGAUGUGCAUUCCGGUCUGAUGAGUCCGUGAGGACAAAACAG [U12A G39A],0.257
13,ACCGGAUGUGCAUUCCGGUCUGAUGAGUCCGUGAGGACCAAACAG [U12A G39C],0.338
14,ACCGGAUGUGCAUUCCGGUCUGAUGAGUCCGUGAGGACUAAACAG [U12A G39U],0.361
15,ACCGGAUGUGCAUUCCGGUCUGAUGAGUCCGUGAGGACGAAACAA [U12A G45A],0.678
16,ACCGGAUGUGCAUUCCGGUCUGAUGAGUCCGUGAGGACGAAACAC [U12A G45C],0.602
17,ACCGGAUGUGCAUUCCGGUCUGAUGAGUCCGUGAGGACGAAACAU [U12A G45U],0.67
18,ACCGGAUGUGCAAUCCGGUCUGAUGAGUCCGUGAGGACGAAACAG [U12A U13A],1.23
19,ACCGGAUGUGCACUCCGGUCUGAUGAGUCCGUGAGGACGAAACAG [U12A U13C],1.05
